Patent US20200199207A1 (MABYLON, published 2020)

Columns and labels:
[1] = target: T1, nAra h 3 (peanut); test: ELISA, antigen-coated plate
T1 construct: Bought natural allergen; also called naturally extracted Ara h 3

[2] = target: T2, Peptide 2 (peanut); test: competition ELISA, peptide in solution vs coated Ara h 2
T2 construct: also called linear Ara h 2 peptide 2
T2 peptide: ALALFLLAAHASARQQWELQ
Summary of the method: (§1)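 Antibody ([…]) pre-incubated 1 h at room temperature with serially diluted 20-mer overlapping linear Ara h 2 peptides (100 μM to 0.19 nM), then applied to plates coated with full-length Ara h 2 (0.05 μg/ml). Bound antibody detected by HRP anti-human Fc-gamma with TMB.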

[3] = target: T3, Peptide 4 (peanut); test: as above
T3 construct: also called linear Ara h 2 peptide 4
T3 peptide: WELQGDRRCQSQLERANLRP
Summary of the method: as §1

[4] = target: T4, Peptide 5 (peanut); test: as above
T4 construct: also called linear Ara h 2 peptide 5
T4 peptide: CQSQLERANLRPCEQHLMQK
Summary of the method: as §1

[5] = target: T5, Peptide 6 (peanut); test: as above
T5 construct: also called linear Ara h 2 peptide 6
T5 peptide: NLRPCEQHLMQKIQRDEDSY
Summary of the method: as §1

[6] = target: T6, Peptide 9 (peanut); test: as above
T6 construct: also called linear Ara h 2 peptide 9
T6 peptide: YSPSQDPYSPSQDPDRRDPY
Summary of the method: as §1

[7] = target: T7, Peptide 10 (peanut); test: as above
T7 construct: also called linear Ara h 2 peptide 10
T7 peptide: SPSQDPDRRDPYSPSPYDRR
Summary of the method: as §1

[8] = target: T8, Peptide 11 (peanut); test: as above
T8 construct: also called linear Ara h 2 peptide 11
T8 peptide: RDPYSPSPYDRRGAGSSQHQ
Summary of the method: as §1

[9] = target: T9, Peptide 16 (peanut); test: as above
T9 construct: also called linear Ara h 2 peptide 16
T9 peptide: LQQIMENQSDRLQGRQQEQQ
Summary of the method: as §1

[10] = target: T10, Peptide 17 (peanut); test: as above
T10 construct: also called linear Ara h 2 peptide 17
T10 peptide: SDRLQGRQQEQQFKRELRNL
Summary of the method: as §1

[11] = target: T11, Peptide 18 (peanut); test: as above
T11 construct: also called linear Ara h 2 peptide 18
T11 peptide: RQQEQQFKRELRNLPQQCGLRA
Summary of the method: as §1

[12] = target: T12, Peptide 20 (peanut); test: as above
T12 construct: also called linear Ara h 2 peptide 20
T12 peptide: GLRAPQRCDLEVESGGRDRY
Summary of the method: as §1

[13] = target: T13, Ara h 2 (peanut, UniProt Q6PSU2 22-172); test: competition ELISA on coated Ara h 2; control: Healthy donor serum
T13 construct: also called full length Ara h 2
T13 sequence (looked up): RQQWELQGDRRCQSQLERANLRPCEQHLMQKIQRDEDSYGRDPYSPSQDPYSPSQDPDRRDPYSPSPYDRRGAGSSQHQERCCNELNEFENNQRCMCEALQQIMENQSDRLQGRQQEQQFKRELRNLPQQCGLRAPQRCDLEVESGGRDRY
Procedure: (§2) Microplates were coated with […] of Ara h 1, Ara h 2, Ara h 3, or Ara h 6, overnight at 4° C. After washing with PBS-Tween 0.05% and blocking with 2% BSA, plates were incubated with increasing concentrations of peanut human IgG antibodies for 1 h at room temperature. Subsequently, plates were incubated with different sera dilutions or different concentrations of murine antibody (as positive control). IgE levels were detected using anti-human HRP-conjugated Fc-epsilon-specific secondary antibody (Abcam, Cambridge, UK) followed by addition of TMB solution (TMB, Sigma, Buchs, Switzerland). Binding of murine antibodies was detected using goat anti-mouse IgG (H+L)-HRP (Jackson ImmunoResearch, West Grove, Pa., USA).

[14] = target: T13, Ara h 2; test: competition ELISA on coated Ara h 2; competitor: Patient A serum IgE
Procedure: as §2

[15] = target: T13, Ara h 2; test: competition ELISA on coated Ara h 2; competitor: Patient C serum IgE
Procedure: as §2

[16] = target: T13, Ara h 2; test: competition ELISA on coated Ara h 2; competitor: Patient E serum IgE
Procedure: as §2

[17] = target: T13, Ara h 2; test: competition ELISA on coated Ara h 2; competitor: Patient F serum IgE
Procedure: as §2

[18] = target: T13, Ara h 2; test: competition ELISA on coated Ara h 2; competitor: Patient G serum IgE
Procedure: as §2

B1: h37D5 (antibody, V domains shown)
VH: EEQLVESGGRLLRPGESLSLSCAAVGFNFGDFGMAWVRQPPGKGLEWVAGINWSGHSTGFVDSMKGRLTISRDSAKSSLFLQMNSLRGEDTAVYYCARVGRLCSGDICDSMGAFDLWGQGTMVTVSS
VL: DIQMTQSPSTLSASIGDRVTITCRASQTIDNWLAWYQQRPGKAPKLLIYQASSLQSGVSSRFRGSGSGTEFTLTITSLQPDDFATYYCQKSNGYSRTFGQGTKVEIK
notes: Recombinant human IgG; also called hMAb 37D5
Question: B1 was tested. Which EC50 [1] did it give?
Answer: Its EC50 is 0.0652 µg/mL.

Question: Does B1 bind [2]?
Answer: Result: no binding (tested: 100 µM)

Question: Does B1 bind [3]?
Answer: Result: no binding (tested: 100 µM)

Question: Does B1 bind [4]?
Answer: Result: no binding (tested: 100 µM)

Question: Does B1 bind [5]?
Answer: Result: no binding (tested: 100 µM)

Question: Does B1 bind [6]?
Answer: Result: binds

Question: Does B1 bind [7]?
Answer: Result: binds

Question: Does B1 bind [8]?
Answer: Result: binds

Question: Does B1 bind [9]?
Answer: Result: no binding (tested: 100 µM)

Question: Does B1 bind [10]?
Answer: Result: no binding (tested: 100 µM)

Question: Does B1 bind [11]?
Answer: Result: no binding (tested: 100 µM)

Question: Does B1 bind [12]?
Answer: Result: no binding (tested: 100 µM)

Question: And the “% inhibition of IgE binding” value [13]?
Answer: Its value is 2.27%.

Question: What about the “% inhibition of IgE binding” value [14] of the same binder?
Answer: The value was 27.8%.

Question: And the “% inhibition of IgE binding” value [15]?
Answer: Its value is roughly 55.1%.

Question: What about the “% inhibition of IgE binding” value [16] of the same binder?
Answer: The value was 29.3%.

Question: What about the “% inhibition of IgE binding” value [17] of the same binder?
Answer: The value was 36.2%.

Question: And the “% inhibition of IgE binding” value [18]?
Answer: Its value is 45.3%.
